{"source": "paper PMC12416549", "about": "(2024)", "binders": {"B1": {"name": "K30Y (designed binder)", "chain": "MTLQELLREEALRRAEAEAFRYALELLAEYFPEQKEYLLDLAEEIESQIRSLSGVDVEDVRKFLDKEWAWVKELLAEHPAELAEVEAARAARLAELRAEVEAKVAA"}, "B2": {"name": "W68A (designed binder)", "chain": "B1 chain with Y30K, W68A"}, "B3": {"name": "E43T (designed binder)", "chain": "B1 chain with Y30K, E43T"}, "B4": {"name": "V60H (designed binder)", "chain": "B1 chain with Y30K, V60H"}, "B5": {"name": "L75Y (designed binder)", "chain": "B1 chain with Y30K, L75Y"}, "B6": {"name": "L41R (designed binder)", "chain": "B1 chain with Y30K, L41R"}, "B7": {"name": "E58F (designed binder)", "chain": "B1 chain with Y30K, E58F"}, "B8": {"name": "R21I (designed binder)", "chain": "B1 chain with R21I, Y30K"}, "B9": {"name": "D59L (designed binder)", "chain": "B1 chain with Y30K, D59L"}, "B10": {"name": "A11Q (designed binder)", "chain": "B1 chain with A11Q, Y30K"}, "B11": {"name": "A80Q (designed binder)", "chain": "B1 chain with Y30K, A80Q"}, "B12": {"name": "E67G (designed binder)", "chain": "B1 chain with Y30K, E67G"}, "B13": {"name": "P79L (designed binder)", "chain": "B1 chain with Y30K, P79L"}, "B14": {"name": "E86Q (designed binder)", "chain": "B1 chain with Y30K, E86Q"}, "B15": {"name": "A11W (designed binder)", "chain": "B1 chain with A11W, Y30K"}, "B16": {"name": "E44H (designed binder)", "chain": "B1 chain with Y30K, E44H"}, "B17": {"name": "F63T (designed binder)", "chain": "B1 chain with Y30K, F63T"}, "B18": {"name": "E46Y (designed binder)", "chain": "B1 chain with Y30K, E46Y"}, "B19": {"name": "S47G (designed binder)", "chain": "B1 chain with Y30K, S47G"}, "B20": {"name": "K30L (designed binder)", "chain": "B1 chain with Y30L"}, "B21": {"name": "H78Q (designed binder)", "chain": "B1 chain with Y30K, H78Q"}, "B22": {"name": "A15Y (designed binder)", "chain": "B1 chain with A15Y, Y30K"}, "B23": {"name": "D56H (designed binder)", "chain": "B1 chain with Y30K, D56H"}, "B24": {"name": "P32Q (designed binder)", "chain": "B1 chain with Y30K, P32Q"}, "B25": {"name": "K62F (designed binder)", "chain": "B1 chain with Y30K, K62F"}, "B26": {"name": "A94L (designed binder)", "chain": "B1 chain with Y30K, A94L"}, "B27": {"name": "R50E (designed binder)", "chain": "B1 chain with Y30K, R50E"}, "B28": {"name": "S47E (designed binder)", "chain": "B1 chain with Y30K, S47E"}, "B29": {"name": "L39A (designed binder)", "chain": "B1 chain with Y30K, L39A"}, "B30": {"name": "A90R (designed binder)", "chain": "B1 chain with Y30K, A90R"}, "B31": {"name": "E25I (designed binder)", "chain": "B1 chain with E25I, Y30K"}, "B32": {"name": "F31Y (designed binder)", "chain": "B1 chain with Y30K, F31Y"}, "B33": {"name": "K30I (designed binder)", "chain": "B1 chain with Y30I"}, "B34": {"name": "R97N (designed binder)", "chain": "B1 chain with Y30K, R97N"}, "B35": {"name": "F31E (designed binder)", "chain": "B1 chain with Y30K, F31E"}, "B36": {"name": "R89A (designed binder)", "chain": "B1 chain with Y30K, R89A"}, "B37": {"name": "K35W (designed binder)", "chain": "B1 chain with Y30K, K35W"}, "B38": {"name": "R8K (designed binder)", "chain": "B1 chain with R8K, Y30K"}, "B39": {"name": "I49R (designed binder)", "chain": "B1 chain with Y30K, I49R"}, "B40": {"name": "W70R (designed binder)", "chain": "B1 chain with Y30K, W70R"}, "B41": {"name": "Q4N (designed binder)", "chain": "B1 chain with Q4N, Y30K"}, "B42": {"name": "A15H (designed binder)", "chain": "B1 chain with A15H, Y30K"}, "B43": {"name": "E95L (designed binder)", "chain": "B1 chain with Y30K, E95L"}, "B44": {"name": "V57L (designed binder)", "chain": "B1 chain with Y30K, V57L"}, "B45": {"name": "A87T (designed binder)", "chain": "B1 chain with Y30K, A87T"}, "B46": {"name": "A42C (designed binder)", "chain": "B1 chain with Y30K, A42C"}, "B47": {"name": "E33L (designed binder)", "chain": "B1 chain with Y30K, E33L"}, "B48": {"name": "A102P (designed binder)", "chain": "B1 chain with Y30K, A102P"}, "B49": {"name": "V85A (designed binder)", "chain": "B1 chain with Y30K, V85A"}, "B50": {"name": "T2A (designed binder)", "chain": "B1 chain with T2A, Y30K"}, "B51": {"name": "R89G (designed binder)", "chain": "B1 chain with Y30K, R89G"}, "B52": {"name": "E95V (designed binder)", "chain": "B1 chain with Y30K, E95V"}, "B53": {"name": "A80H (designed binder)", "chain": "B1 chain with Y30K, A80H"}, "B54": {"name": "K35S (designed binder)", "chain": "B1 chain with Y30K, K35S"}, "B55": {"name": "V57D (designed binder)", "chain": "B1 chain with Y30K, V57D"}, "B56": {"name": "D59M (designed binder)", "chain": "B1 chain with Y30K, D59M"}, "B57": {"name": "L96R (designed binder)", "chain": "B1 chain with Y30K, L96R"}, "B58": {"name": "R89P (designed binder)", "chain": "B1 chain with Y30K, R89P"}, "B59": {"name": "E36K (designed binder)", "chain": "B1 chain with Y30K, E36K"}}, "target": "T1, TNFR1 (Homo sapiens, UniProt P19438)", "T1 chain": "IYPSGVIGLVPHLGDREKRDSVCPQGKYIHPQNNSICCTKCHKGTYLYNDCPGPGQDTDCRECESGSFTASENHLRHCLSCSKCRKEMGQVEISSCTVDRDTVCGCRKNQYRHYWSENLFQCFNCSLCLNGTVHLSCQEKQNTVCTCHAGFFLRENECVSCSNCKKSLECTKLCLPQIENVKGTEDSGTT", "test": "yeast display SC50", "note": "Changes are numbered by the printed parent chain. Numbers in names are those of the source."}
{"binder": "B1", "values": [{"measurement": "apparent Kd (screen)", "result": 0.539, "unit": "nM"}]}
{"binder": "B2", "values": [{"measurement": "apparent Kd (screen)", "result": 1.4, "unit": "nM"}]}
{"binder": "B3", "values": [{"measurement": "apparent Kd (screen)", "result": 0.79, "unit": "nM"}]}
{"binder": "B4", "values": [{"measurement": "apparent Kd (screen)", "result": 1.27, "unit": "nM"}]}
{"binder": "B5", "values": [{"measurement": "apparent Kd (screen)", "result": 0.718, "unit": "nM"}]}
{"binder": "B6", "values": [{"measurement": "apparent Kd (screen)", "result": 15.2, "unit": "nM"}]}
{"binder": "B7", "values": [{"measurement": "apparent Kd (screen)", "result": 2.73, "unit": "nM"}]}
{"binder": "B8", "values": [{"measurement": "apparent Kd (screen)", "result": 0.49, "unit": "nM"}]}
{"binder": "B9", "values": [{"measurement": "apparent Kd (screen)", "result": 0.718, "unit": "nM"}]}
{"binder": "B10", "values": [{"measurement": "apparent Kd (screen)", "result": 0.79, "unit": "nM"}]}
{"binder": "B11", "values": [{"measurement": "apparent Kd (screen)", "result": 0.49, "unit": "nM"}]}
{"binder": "B12", "values": [{"measurement": "apparent Kd (screen)", "result": 13.8, "unit": "nM"}]}
{"binder": "B13", "values": [{"measurement": "apparent Kd (screen)", "result": 0.718, "unit": "nM"}]}
{"binder": "B14", "values": [{"measurement": "apparent Kd (screen)", "result": 0.869, "unit": "nM"}]}
{"binder": "B15", "values": [{"measurement": "apparent Kd (screen)", "result": 0.405, "unit": "nM"}]}
{"binder": "B16", "values": [{"measurement": "apparent Kd (screen)", "result": 2.05, "unit": "nM"}]}
{"binder": "B17", "values": [{"measurement": "apparent Kd (screen)", "result": 0.869, "unit": "nM"}]}
{"binder": "B18", "values": [{"measurement": "apparent Kd (screen)", "result": 0.539, "unit": "nM"}]}
{"binder": "B19", "values": [{"measurement": "apparent Kd (screen)", "result": 1.27, "unit": "nM"}]}
{"binder": "B20", "values": [{"measurement": "apparent Kd (screen)", "result": 0.539, "unit": "nM"}]}
{"binder": "B21", "values": [{"measurement": "apparent Kd (screen)", "result": 0.869, "unit": "nM"}]}
{"binder": "B22", "values": [{"measurement": "apparent Kd (screen)", "result": 0.539, "unit": "nM"}]}
{"binder": "B23", "values": [{"measurement": "apparent Kd (screen)", "result": 1.86, "unit": "nM"}]}
{"binder": "B24", "values": [{"measurement": "apparent Kd (screen)", "result": 0.593, "unit": "nM"}]}
{"binder": "B25", "values": [{"measurement": "apparent Kd (screen)", "result": 0.593, "unit": "nM"}]}
{"binder": "B26", "values": [{"measurement": "apparent Kd (screen)", "result": 0.956, "unit": "nM"}]}
{"binder": "B27", "values": [{"measurement": "apparent Kd (screen)", "result": 0.446, "unit": "nM"}]}
{"binder": "B28", "values": [{"measurement": "apparent Kd (screen)", "result": 0.49, "unit": "nM"}]}
{"binder": "B29", "values": [{"measurement": "apparent Kd (screen)", "result": 2.05, "unit": "nM"}]}
{"binder": "B30", "values": [{"measurement": "apparent Kd (screen)", "result": 0.718, "unit": "nM"}]}
{"binder": "B31", "values": [{"measurement": "apparent Kd (screen)", "result": 0.869, "unit": "nM"}]}
{"binder": "B32", "values": [{"measurement": "apparent Kd (screen)", "result": 0.593, "unit": "nM"}]}
{"binder": "B33", "values": [{"measurement": "apparent Kd (screen)", "result": 0.49, "unit": "nM"}]}
{"binder": "B34", "values": [{"measurement": "apparent Kd (screen)", "result": 0.539, "unit": "nM"}]}
{"binder": "B35", "values": [{"measurement": "apparent Kd (screen)", "result": 0.49, "unit": "nM"}]}
{"binder": "B36", "values": [{"measurement": "apparent Kd (screen)", "result": 0.79, "unit": "nM"}]}
{"binder": "B37", "values": [{"measurement": "apparent Kd (screen)", "result": 0.593, "unit": "nM"}]}
{"binder": "B38", "values": [{"measurement": "apparent Kd (screen)", "result": 0.539, "unit": "nM"}]}
{"binder": "B39", "values": [{"measurement": "apparent Kd (screen)", "result": 0.593, "unit": "nM"}]}
{"binder": "B40", "values": [{"measurement": "apparent Kd (screen)", "result": 12.5, "unit": "nM"}]}
{"binder": "B41", "values": [{"measurement": "apparent Kd (screen)", "result": 0.405, "unit": "nM"}]}
{"binder": "B42", "values": [{"measurement": "apparent Kd (screen)", "result": 0.539, "unit": "nM"}]}
{"binder": "B43", "values": [{"measurement": "apparent Kd (screen)", "result": 0.446, "unit": "nM"}]}
{"binder": "B44", "values": [{"measurement": "apparent Kd (screen)", "result": 0.539, "unit": "nM"}]}
{"binder": "B45", "values": [{"measurement": "apparent Kd (screen)", "result": 0.956, "unit": "nM"}]}
{"binder": "B46", "values": [{"measurement": "apparent Kd (screen)", "result": 1.05, "unit": "nM"}]}
{"binder": "B47", "values": [{"measurement": "apparent Kd (screen)", "result": 0.653, "unit": "nM"}]}
{"binder": "B48", "values": [{"measurement": "apparent Kd (screen)", "result": 0.956, "unit": "nM"}]}
{"binder": "B49", "values": [{"measurement": "apparent Kd (screen)", "result": 0.79, "unit": "nM"}]}
{"binder": "B50", "values": [{"measurement": "apparent Kd (screen)", "result": 0.79, "unit": "nM"}]}
{"binder": "B51", "values": [{"measurement": "apparent Kd (screen)", "result": 1.05, "unit": "nM"}]}
{"binder": "B52", "values": [{"measurement": "apparent Kd (screen)", "result": 0.49, "unit": "nM"}]}
{"binder": "B53", "values": [{"measurement": "apparent Kd (screen)", "result": 0.869, "unit": "nM"}]}
{"binder": "B54", "values": [{"measurement": "apparent Kd (screen)", "result": 0.653, "unit": "nM"}]}
{"binder": "B55", "values": [{"measurement": "apparent Kd (screen)", "result": 3.99, "unit": "nM"}]}
{"binder": "B56", "values": [{"measurement": "apparent Kd (screen)", "result": 0.539, "unit": "nM"}]}
{"binder": "B57", "values": [{"measurement": "apparent Kd (screen)", "result": 0.956, "unit": "nM"}]}
{"binder": "B58", "values": [{"measurement": "apparent Kd (screen)", "result": 24.4, "unit": "nM"}]}
{"binder": "B59", "values": [{"measurement": "apparent Kd (screen)", "result": 3.99, "unit": "nM"}]}
